Measurements: patent US20090123479A1 (published 2009)

Tests used:
recombinant human IL-23 [1] = target: T1, recombinant human IL-23 (human, UniProt Q9NPF7 20-189; P29460 23-328); experiment: SPR (Biacore 3000), CHO supernatant antibody captured on Protein A or anti-human IgG, IL-23 analyte at 256, 64, 16, 4 nM
T1 construct: also called hIL-23
T1 sequence 1: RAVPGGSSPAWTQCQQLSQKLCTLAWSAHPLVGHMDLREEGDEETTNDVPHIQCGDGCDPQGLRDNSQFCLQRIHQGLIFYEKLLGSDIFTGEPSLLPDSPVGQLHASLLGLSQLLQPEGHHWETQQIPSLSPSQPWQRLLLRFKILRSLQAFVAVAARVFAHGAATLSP
T1 sequence 2: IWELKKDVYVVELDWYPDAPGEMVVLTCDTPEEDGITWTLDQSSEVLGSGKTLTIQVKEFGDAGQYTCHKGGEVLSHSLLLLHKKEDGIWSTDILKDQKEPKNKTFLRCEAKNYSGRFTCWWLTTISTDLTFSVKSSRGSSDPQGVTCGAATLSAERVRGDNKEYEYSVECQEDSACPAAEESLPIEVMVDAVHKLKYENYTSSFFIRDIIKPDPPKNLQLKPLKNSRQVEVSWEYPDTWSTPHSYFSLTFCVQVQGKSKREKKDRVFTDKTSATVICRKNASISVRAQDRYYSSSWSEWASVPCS

recombinant human IL-23 [2] = target: T1, recombinant human IL-23; experiment: SPR (Biacore 3000), purified antibody captured on Protein A or anti-human IgG, IL-23 analyte at 256, 64, 16, 4 nM
Experimental: (§1) Protein A or an anti-human IgG (Biacore BR-1008-39) was immobilised on a Biacore CM5 chip by primary amine coupling in accordance with the manufacturer's instructions. Anti IL-23 antibodies were captured on this surface and after a period of stabilisation, […] was passed over the antibody captured surface and a binding sensorgram was obtained. […] All runs were double referenced with a buffer injection over the captured antibody surface. Data was analysed using the 1:1 model using the software inherent to the Biacore 3000 or T100 depending upon which machine was used to generate kinetics. Analysis was carried out at 25° C. using HBS-EP buffer. Data presented in Tables 3-6 are on tissue culture supernatants of CHO cells transiently expressing the antibody of interest unless otherwise indicated. Data was generated using concentrations of IL-23 (256, 64, 16, 4, 1 and 0.25 nM) The data shown for the humanized variants is representative of a number of runs, The chimeric mAb (8C9H6.HC1LC1) was only run once in each experiment, so data shown for this mAb is from that one run, […]

recombinant human IL-23 [3] = target: T1, recombinant human IL-23; experiment: SPR (Biacore 3000), CHO supernatant antibody captured on Protein A or anti-human IgG, IL-23 analyte at 100, 10, 1 nM
Experimental: as §1, with “indicated.” for “indicated. Data was generated using concentrations of IL-23 (256, 64, 16, 4, 1 and 0.25 nM) The data shown for the humanized variants is representative of a number of runs, The chimeric mAb (8C9H6.HC1LC1) was only run once in each experiment, so data shown for this mAb is from that one run,”

recombinant human IL-23 [4] = target: T1, recombinant human IL-23; experiment: SPR (Biacore T100), purified material captured on Protein A or anti-human IgG, IL-23 analyte at 256, 64, 16, 4, 1 nM
Experimental: as §1

recombinant human IL-23 [5] = target: T1, recombinant human IL-23; experiment: SPR (Biacore T100), transient material captured on Protein A or anti-human IgG, IL-23 analyte at 256, 64, 16, 4, 1 nM
Experimental: as §1

recombinant human IL-23 [6] = target: T1, recombinant human IL-23; experiment: SPR (Biacore T100), CHO supernatant antibody captured on Protein A or anti-human IgG, IL-23 analyte at 10 concentrations 128-0.25 nM
Experimental: as §1, with “indicated.” for “indicated. Data was generated using concentrations of IL-23 (256, 64, 16, 4, 1 and 0.25 nM) The data shown for the humanized variants is representative of a number of runs, The chimeric mAb (8C9H6.HC1LC1) was only run once in each experiment, so data shown for this mAb is from that one run,”

recombinant human IL-23 [7] = target: T1, recombinant human IL-23; experiment: IL-23/IL-23R inhibition ELISA (first protocol, OD490): plate coated with human IL23R Fc chimera, antibody pre-incubated with constant human IL-23, bound IL-23 detected with biotinylated anti-human IL-12; purified antibody
Experimental: Chimeric and humanized mAbs were assessed for their ability to neutralise human IL-23 binding to human IL-23 receptor, and cyno IL23 binding to human IL23 receptor. Plates were coated with human IL23R Fc chimera at 1 μg/diluent (bicarbonate buffer). 50 μl/well of this mixture was incubated overnight at 4° C. The plates were then washed twice with Tris Buffered Saline with 0.05% Tween 20 (TBST). Plates were blocked with 1% BSA TBST 100 μl/well for a minimum of 1 hour at room temperature. The plates were then washed twice with Tris Buffered Saline with 0.05% Tween 20 (TBST). Various concentrations of antibody were incubated in a separate plate with a constant concentration of IL-23 for 1 hour at room temperature. 50 ul of each mixture were transferred to the assay plate and incubated at RT for 1 hr. They were then washed twice with Tris Buffered Saline with 0.05% Tween 20 (TBST). Bound IL23 was detected by anti human 1L12 Biotin labelled Ab (R&D systems BAF219) diluted to 100 ng/ml in 1% BSA TBST. 50 μl/well of the biotinylated antibody was added and incubated at RT for 1 hour. The plates were then washed twice with Tris Buffered Saline with 0.05% Tween 20 (TBST). ExtrAvidin-Peroxidase (Sigma E2886) was diluted 1/1000 in 1% BSA TBST, 50 μl/well was added to the plates. […] The plate was read at OD490 nm using the SOftmaxPRO versamax plate reader.

B1: A3M0 (antibody, human IgG1, kappa, V domains shown)
VH: QVQLVQSGAEVKKPGSSVKVSCKASGYTFTSYGITWVRQAPGQGLEWMGENYPRSGNTYYNEKFKGRVTITADKSTSTAYMELSSLRSEDTAVYYCARSEFISTVVAPYYYALDYWGQGTLVTVSS
VL: DIVMTQSPDSLAVSLGERATINCKASKKVTIFGSISALHWYQQKPGQPPKLIYNGAKLESGVPDRFSGSGSGTDFTLTISSLQAEDVAVYYCLQNKEVPYTFGGGTKVEIKR
notes: Full length chains; also called humanized mAb A3M0
Recombinant human IL-23 [1]
  Kd: 1.1 nM
  koff: 0.00033 s⁻¹
  kon: 300000 M⁻¹ s⁻¹

B2: chimeric 8C92H6 HC1LC1 (antibody, V domains shown)
VH: QVQLQQSGAELARPGTSVKLSCKASGYTFTSYGITWVKQRTGQGLEWIGENYPRSGNTYYNEKFKGKATLTADKSSSTAYMELRSLTSEDSAVYFCARCEFISTVVAPYYYALDYWGQGTSLVTVS
VL: DIVLTQSPASLAVSLGQKATISCKASKKVTIFGSISALHWYQQKPGQPPKLIYNGAKLESGVSARFSDSGSQNRSPFGNQLSFTLTIDPVEADDAATYYCLQNKEVPYTFGGGTKLEIKR
notes: Murine variable regions with human constant regions; also called 8C92H6.HC1LC1 Chimera; 8C9 chimera
Recombinant human IL-23 [2]
  Kd: 1.8 nM
  koff: 0.00044 s⁻¹
  kon: 240000 M⁻¹ s⁻¹
Recombinant human IL-23 [3]
  Kd: 1.4 nM
  koff: 0.00039 s⁻¹
  kon: 270000 M⁻¹ s⁻¹
Recombinant human IL-23 [4]
  Kd: 2.2 nM
  koff: 0.00043 s⁻¹
  kon: 200000 M⁻¹ s⁻¹
Recombinant human IL-23 [5]
  Kd: 1.8 nM
  koff: 0.00038 s⁻¹
  kon: 210000 M⁻¹ s⁻¹
Recombinant human IL-23 [6]
  Kd: 0.91 nM
  koff: 0.00029 s⁻¹
  kon: 320000 M⁻¹ s⁻¹
Recombinant human IL-23 [7]
  IC50 (read off the curve): ~0.08 µg/mL
